Test results taken from the supplement of paper PMC9170038.

Tested on: MS2 coat protein
Test: apparent KD of MS2 coat protein; designed switch direction (-1 OFF switch, 1 ON switch): -1; higher = weaker reporter binding
Method in brief: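 SNAP-549-labelled MS2 coat protein was titrated, doubling from 0.7 or 1.5 nM to 3 µM, over designed RNA switches transcribed on Illumina chips by stalled E. coli RNA polymerase. Runs were done without input, with 200 uM small-molecule ligand, or with an oligonucleotide input. Apparent KD is the per-design median over clusters of curve-fitted normalised fluorescence.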

[1] = Eterna round: R95, input ligand: FMN 200 uM
[2] = Eterna round: R95, input ligand: microRNA oligo, concentration not stated
[3] = Eterna round: R95, input ligand: none
[4] = input ligand: microRNA oligo, concentration not stated

Row | Sequence | apparent KD of MS2 coat protein [1] [nM] | apparent KD of MS2 coat protein [2] [nM] | apparent KD of MS2 coat protein [3] [nM] | apparent KD of MS2 coat protein (input ligand: FMN 200 uM) [nM] | apparent KD of MS2 coat protein (input ligand: none) [nM] | apparent KD of MS2 coat protein [4] [nM]
1 | AGUUGGCGAGGAUAUACAUGAGGAUCACCCAUGUGAAGAAGAAGAGUGAGGAAGAAAAGUAGAAGGCGCUGACA [Mat - Exclusion 3 - Mod of Salish D38] (puzzle: Exclusion 3) | 87.9 | 84 | 50.7 |  |  | 
2 | AGUUGGCGAGGAUAUACAUGAGGAUCACCCAUGUGAGAGAAUAAAGUGAGAAAGAAAAGUAGAAGGCGCUGACG [Mat - Exclusion 3 - Mod of Salish D50] (puzzle: Exclusion 3) | 82.8 | 62.7 | 41.4 |  |  | 
3 | AGUUGGCGAGGAUAUACAUGAGGAUCACCCAUGUGAGAGAUACUAGUGAGGUCGGUUAGUAGAAGGCGCUGACA [Mat X3R4 m16] (Eterna round: R97, puzzle: Exclusion 3) |  |  |  | 344 | 35.5 | 
4 | AGUUGGCGAGGAUAUACAUGAGGAUCACCCAUGUGAGAGAUAGUAGUGAGGUCGAUUAGUAGAAGGCGCUGACA [Mat X3R4 m13] (Eterna round: R97, puzzle: Exclusion 3) |  |  |  | 278 | 353 | 
5 | AGUUGGCGAGGAUAUACAUGAGGAUCACCCAUGUGUGAGAUAUAAGUGAGGUAAAUAUGUAGAAGGCGCUGACA [JR_Ex3_Sub079] (Eterna round: R97, puzzle: Exclusion 3) |  |  |  | 18.4 | 425 | 
6 | AGUUGUUGUUUCCGUUCUUACAUGAGGAUCACCCAUGUUUCUUGUCGUGCUCGCGUUGCUCGUCUGGCUACCUGUUG [salish99_TOv1_r3_068] (puzzle: Sensor v3, turn-off variant 1) | 33.9 | 34 | 43.8 |  |  | 
7 | AGUUUACAUGAGGAUCACCCAUGUGAGGAUAUGGAUUCGCUGGCCGUAGCCAGUGGAUCCAGAAGGCGCGUGAU [JL-ex1-4.29] (Eterna round: R97, puzzle: Exclusion 1) |  |  |  | 186 | 101 | 
8 | AUAAAGCAAGCAUGGUCCCACAUGAGGAUCACCCAUGUGUUCGUCUUAUAGGCUGCUGUGGCUUUUGCCUCGUUGGC [LRO Sensor-off var1-09 loose mod of D91 from Mat747] (Eterna round: R97, puzzle: Sensor, turn-off variant 1) |  |  |  | 41.6 | 46 | 
9 | AUAAAUCAUGUAGGAUAUGCGUGGCGAAGCUAUGCAGAAGGACAUGAGGAUCACCCAUGUUCUUCCGUCUGCGUACAGACGGAA [Mat - Exclusion NG 1 - Mod of JL - D39] (Eterna round: R96, puzzle: Exclusion NG 1) |  |  |  | 297 | 34.9 | 28.5
10 | AUAACAAGCUUUUUUUUCGUAGUACAUGACGCUCGAGUCACAUGAGGAUCACCCAUGUCUUCCUGUUUGAUUGUUGA [JR_SV3TOV2_Sub058] (puzzle: Sensor v3, turn-off variant 2) | 45.8 | 54.7 | 54.6 |  |  | 
11 | AUAACCGAAGGAUAUAGUCGUGAGGACAUGAGGAUCACCCAUGUGUUUCAGAUAGUCCCACUAGAAGGUCGGCGUC [Eternabot (L2) Solution 29] (Eterna round: R97, puzzle: Exclusion 5) |  |  |  | 110 | 67.2 | 
12 | AUAAGCUUUUAUAUCCUUAACAUGAGGAUCACCCAUGUUCGUCUUAUGAUGGUCUGAUCCCUGAGGAUCGGACCGUU [JL-sv1-2.04 Brourd Mod] (puzzle: Sensor v3, turn-off variant 1) | 31 | 76.5 | 29.9 |  |  | 
13 | AUAAGGUCAGGAUAUGCUUGGCGGAUUCUGGUGUCCAAAUGACAUGAGGAUCACCCAUGUAGAAGGGACAUCAG [Leonlexe] (Eterna round: R97, puzzle: Exclusion 2) |  |  |  | 12.4 | 14.1 | 
14 | AUAAUAAAGGAGGAUAUCGUAUCGGAAACGAUACGAGAAGGUCUAACAUGAGGAUCACCCAUGUUCCUCAAAUA [Mat - Exclusion 6 - Eli Mod - D49] (puzzle: Exclusion 6) |  | 40.9 |  |  |  | 
15 | AUAAUACAUGAGGAUCACCCAUGUGAGGAUAUGAGCCUACAUUCACGCAGAGAGAAGGUCAGAAGGCACUUGGU [Eternabot (L2) Solution 65] (Eterna round: R97, puzzle: Exclusion 1) |  |  |  | 211 | 63.3 | 
16 | AUAAUACAUGUAGGAUAUCUGCACGAUUAGUGCAGAGAAGGACAUGAGGAUCACCCAUGUAAUUAAGAUCAAUUAUUAAAUUAU [ENG1/3-D1] (Eterna round: R96, puzzle: Exclusion NG 1) |  |  |  | 238 | 57 | 63.9
17 | AUAAUACAUGUAGGAUAUCUGCACGUGUAGUGCAGAGAAGGACAUGAGGAUCACCCAUGUAAUUAAGAUCAAUUAUUAAAUUAU [ENG1/3-D3] (Eterna round: R96, puzzle: Exclusion NG 1) |  |  |  | 228 | 75.6 | 53.6

Row | Sequence | apparent KD of MS2 coat protein [1] [nM] | apparent KD of MS2 coat protein [2] [nM] | apparent KD of MS2 coat protein [3] [nM] | apparent KD of MS2 coat protein (input ligand: FMN 200 uM) [nM] | apparent KD of MS2 coat protein (input ligand: none) [nM] | apparent KD of MS2 coat protein [4] [nM]
18 | AUAAUGUAAGGAUAUCAGUCGUACAGCUUCGGCUGUACGACUGAGAAGGUACAUGAGGAUCACCCAUGUGAUCA [E4/8-A1] (Eterna round: R97, puzzle: Exclusion 4) |  |  |  | 185 | 1680 | 
19 | AUAAUGUGAGGAUAUCAGUAGUAUUGCCUCGGCAAUACUACUGAGAAGGCACAUGAGGAUCACCCAUGUGAUCA [E4/2-B2] (Eterna round: R97, puzzle: Exclusion 4) |  |  |  | 29.3 | 772 | 
20 | AUAAUGUGAGGAUAUCAGUCGACUAGCUUCGGCUAGUCGACUGAGAAGGCACAUGAGGAUCACCCAUGUAGAUC [E4/17-A1] (Eterna round: R97, puzzle: Exclusion 4) |  |  |  | 59 | 925 | 
21 | AUAAUUAAUCGAGGAUAUCAGCACGUUUAGUGCUGAGAAGGCGACAUGAGGAUCACCCAUGUGAUCAAUUAAUAUUAAUAUUAU [ENG1/11-C2] (Eterna round: R96, puzzle: Exclusion NG 1) |  |  |  | 898 | 369 | 230
22 | AUACCACGAGGAUAUCGUCUAUUUCACAUGAGGAUCACCCAUGUUAUCUUUGUUUUGUUUCGAGAAGGCGUGUUUU [JR_E5_Sub078] (puzzle: Exclusion 5) |  | 28.1 |  |  |  | 
23 | AUAUACGGAGGAUAUACUUGAGGAUCACCCAAGUGGAGUCCCGUUUGGGCGGUAAAUAGUAGAAGGCCGACCCA [jl-ex3-4.43 ViennaUCT mod] (Eterna round: R97, puzzle: Exclusion 3) |  |  |  | 14.1 | 16.5 | 
24 | AUAUAGAUAGUCAGGAUAUGCUAGUGAUAACAGUAGUAGAAGGGACAUGAGGAUCACCCAUGUAGAUACUGCAC [Brourd's EX4 #3] (Eterna round: R97, puzzle: Brourd's mod of Exclusion 4) |  |  |  | 19.6 | 19.3 | 
25 | AUAUAGCGAGGAUAUACAUGAGGAUCACCCAUGUGGUAGUAGAUACAGUAGAGAUAGAGUAGAAGGCGCUAUGA [EX3 #7] (Eterna round: R97, puzzle: Exclusion 3) |  |  |  | 416 | 79.2 | 
26 | AUAUUAAUAGUAAGGAUAUGCGUAUAUGUAGUUAUGCAGAAGGUACAUGAGGAUCACCCAUGUAUUAAUGUGUA [LRO-BmodExc4-04-Oppy's Opus] (Eterna round: R97, puzzle: Brourd's mod of Exclusion 4) |  |  |  | 16 | 16 | 
27 | AUAUUGUGAGGAUAUGAACUUAGUUUCGAAAGAUACUAAGUUCAGAAGGCACAUGAGGAUCACCCAUGUUUCUC [Long static hairpin v21] (Eterna round: R97, puzzle: Exclusion 4) |  |  |  | 597 | 79.8 | 
28 | AUAUUGUGAGGAUAUGUACUUAGUAUCGAAAGAUACUAAGUUCAGAAGGCACAUGAGGAUCACCCAUGUUUCUC [Long static hairpin v13] (Eterna round: R97, puzzle: Exclusion 4) |  |  |  | 805 | 63.5 | 
29 | AUCACGGAUGUAAGGAUAUACAAAACCAUAAGGUAGUAGAAGGUACAUGAGGAUCACCCAUGUGCAUAUGUUUA [BmEX4 C.14] (Eterna round: R97, puzzle: Brourd's mod of Exclusion 4) |  |  |  | 18.5 | 16.2 | 
30 | AUCAGCUCGUCAGGAUAUACAUGCGUGCUUCGGCACGUAUGAUAGAUCACAUGAGGAUCACCCAUGUAGAAGGGACGAGCUGAU [ENG2/4-B3] (Eterna round: R96, puzzle: Exclusion NG 2) |  |  |  | 15.3 | 12.7 | 9.19
31 | AUCAUGUAAGGAUAUCUGACAUGUGACGAAAGUCACUGUUCAGAGAAGGUACAUGAGGAUCACCCAUGUAGAAC [Ex4-3: 43] (puzzle: Exclusion 4) |  | 62.8 |  |  |  | 
32 | AUCCAACAUGAGGAUCACCCAUGUGAGGAUAUGCCCAAAACUCUUCGAUCCGAAGAGCGCAGAAGGCACAUGAA [EX1 A.18] (Eterna round: R97, puzzle: Exclusion 1) |  |  |  | 33.4 | 13.2 | 
33 | AUCGGACAUGAGGAUCACCCAUGUCAGGAUAUCUGGAACCAUUGGCAGAUGAGGGAAAAGAGAAGGGACAGUGG [EX1 C.3] (Eterna round: R97, puzzle: Exclusion 1) |  |  |  | 20.2 | 18.5 | 
34 | AUCGUGGCUCAGGAUAUCAGCCCUGUGGAGUUCUGAGAAGGGAGCACAUGAGGAUCACCCAUGUGAAAGGGUAC [Esdienar] (puzzle: Exclusion 6) | 148 | 45.6 | 40.8 |  |  | 
